Assay in all cases: ELISA, lectin-captured E1E2 lysate, Ab 1 ug/ml
(In general: An ELISA detects its analyte on a solid surface through an enzyme-linked reagent.)

In assay [1] the target is E1E2 complex (H77) with E1 mutation G315A (HCV genotype 1a, isolate H77) (UniProt P27958).
The target in assay [2] is E1E2 complex (H77) with E1 mutation D279A (HCV genotype 1a, isolate H77) (UniProt P27958).
For assay [3], the target named is E1E2 complex (H77) with E1 mutation M324A (HCV genotype 1a, isolate H77) (UniProt P27958).
In assay [4] the target is E1E2 complex (H77) with E2 mutation G634A (HCV genotype 1a, isolate H77) (UniProt P27958).
The target of assay [5] is E1E2 complex (H77) with E1 mutation N196A/N305A (HCV genotype 1a, isolate H77) (UniProt P27958).
Assay [6] deals with E1E2 complex (H77) with E1 mutation H261A (HCV genotype 1a, isolate H77) (UniProt P27958).
The target in assay [7] is E1E2 complex (H77) with E1 mutation Q193A (HCV genotype 1a, isolate H77) (UniProt P27958).
For assay [8], the target named is E1E2 complex (H77) with E2 mutation H617A (HCV genotype 1a, isolate H77) (UniProt P27958).
Assay [9] deals with E1E2 complex (H77) with E1 mutation P228A (HCV genotype 1a, isolate H77) (UniProt P27958).
The target in assay [10] is E1E2 complex (H77) with E2 mutation F447A (HCV genotype 1a, isolate H77) (UniProt P27958).
Assay [11] has as its target E1E2 complex (H77) with E1 mutation H316A (HCV genotype 1a, isolate H77) (UniProt P27958).
Assay [12] concerns the target E1E2 complex (H77) with E1 mutation H222A (HCV genotype 1a, isolate H77) (UniProt P27958).
The target in assay [13] is E1E2 complex (H77) with E2 mutation R614A (HCV genotype 1a, isolate H77) (UniProt P27958).
The target of assay [14] is E1E2 complex (H77) with E1 mutation F293A (HCV genotype 1a, isolate H77) (UniProt P27958).
For assay [15], the target named is E1E2 complex (H77) with E2 mutation H638A (HCV genotype 1a, isolate H77) (UniProt P27958).
The target of assay [16] is E1E2 complex (H77) with E1 mutation D346A (HCV genotype 1a, isolate H77) (UniProt P27958).
Assay [17] addresses E1E2 complex (H77) with E1 mutation S307A (HCV genotype 1a, isolate H77) (UniProt P27958).
The target in assay [18] is E1E2 complex (H77) with E1 mutation R339A (HCV genotype 1a, isolate H77) (UniProt P27958).

Regarding mouse anti-E1 MAb A4 (antibody), the Binding relative to wt (%) amounted to 91% in [1]; 28% in assay [2]; 80% in assay [3]; 112% in assay [4]; 69% in [5]; 96% in assay [6]. Besides, the Binding relative to wt (%) is 81% in assay [7]; 140% in assay [8]; 171% in assay [9]; 98% in [10]; 95% in assay [11]; 132% in [12]. For the same substance, the Binding relative to wt (%) in assay [13] was determined as 133%; in [14] it was 87%; in [15] it was 104%; in assay [16], 87%; in assay [17], 157%; in [18], 87%.

These data come from US20110311550A1.
